This is an account of results in the DeepSol protein solubility set.

The nature of the data set: soluble on expression in E. coli; label from the status in PepcDB or PDB records.
“MGSDKIHHHHHHMGTIWPDSLPQSKGAKYTLVADVIRKAIDTKELEVGVKLPPVRELAYKLGITPGTVARAYTILTDEGLLNAEVGRGTFVAPPKRPVLDDVWSRQLYLLDERDDDNVSLFSPRLADMGQVALIRECLQKVAQGDPAMFLNYPTRDAYAGVRQAVVDWMSDLSLGPLTADDIVLTHGGQSGLCVVFQTVFKGPKPVVLVEDLSYAGFRRAAELMRADVIGVRMDKWGIDPMSLDLTARQSPAQAICVSPEVQNPTGSRSPLERRKEVVEVARKHDLQIIEDDCYRMGEPQAPSYRALAPERGWHVSSVSKTLTPALRVGFAIAPEGQSAGLRRSAEYGYFGLAQPLAELTRLMLSDPRARDLARAVQRRMAEYVRVTVNTLGGFDLVWDSAVPFVWLRLPSGWRSAAFTRAAERAGVQVRSADEFALRDGRAPNAVRIAMNAHVSLERFETAMVRLRALLDNPPEQISV”: the “soluble on expression in E. coli” value is “not soluble”. For “ADVTITVNGKVVAKPCTVSTTNATVDLGDLYSFSLMSAGAASAWHDVALELTNCPVGTSRVTASFSGAADSTGYYKNQGTAQNIQLELQDDSGNTLNTGATKTVQVDDSSQSAHFPLQVRALTVNGGATQGTIQAVISITYTYS” the value was “soluble”.

In the case of “MLDINLFREEKGNNPEIIRESQRRRFASVEIVDEIIKLDKEWRQRQFEVDSFRKEFNKLNKQVAQLKIKKEDASEIIQQTEKNKQDSTAKEAEVREAYAALKAKLEQVGNLVHDSVPVDKDEANNLVIKLWGEKRFSTPGLKLKNHVDLVELLGIADTKRGAEIAGARGFFLKGDGLMLNQALINFGLTFLKKRGFTGLQPPFFMRKDVMAKCAQLAQFDEELYKVTGEGDDKYLIATAEQPLCAYHIDEWIHPTELPLRYAGYSSCFRKEAGSHGRDTLGIFRVHQFEKIEQFCITGPNENASWEMLDEMMKNSEDFYQALKLPYQIVSIVSGALNDAAAKKYDLEAWFPSSETFRELVSCSNCTDYQARRLEIRYGQKKSNEQTKQYVHMLNSTLTATERTICCILENYQREDGVDIPEVLQPFMGGETFLPFKAKPVVADTKGKKSKA”, the “soluble on expression in E. coli” value is recorded as “soluble”. For “MDEKKCWLVVCVQSNREKKTYERLSALGFESFLPLQEETRRWSDRSKKVQRVVIPMVVFARIAPSERISVLRLPSVSRFMVLRGESAPAIIPDAQMERFRFMLDYSEEAVEMCSERIQPGEQVKVIKGPLTGLTGELITMDGKSKVAVRINMLGAAMVEVPVGFVERI” the value was “not soluble”; for “MGSDKIHHHHHHMMQKPKVGQDVPEPSAGGMFQRDAMSPSVAHKPVLELKGNLLSLMVLYLFDSDRNLIEQQFTEKISGAKNFFKNAPIVIDLHALQNTSVPVDLSHLSDLFRKHGLVPVGVRGGNVQQQQAALNLSLGILPDAKPASSRGEPQTEVAVQATRDKVFTQPVRSGQQVAALQGDLVVLAAVNPGAEILAGKNIHVYGPLRGRAIAGVHGYSEARIFCRYFDAELVAVAGQYMLNEDFEDSVRGKPVHIFLENDRLKIQPFEI”, “not soluble”; for “MMLYFITFREARVLLKSRDLALINVDLMKTGKKIRVRVSKDYVEFPDGSRVKKEIIKRIAEDEGNVYFVRDGEVFKAAIAGEHFYKLVPTIPPTIEINGIRMHRTKGTDPLKDTIAKVNTVKPREGEVVLDTCMGLGYTAIESAKRGARVITIEKDPNVIELAKINPWSRELFESPKIKILQGDSFDLIKKFEDESFDVIIHDPPRFSLAGELYSEEFYMEMFRVLKPGGRLFHYVGNPGKRYRGLDLQKGVMERLRRVGFMKVRRVQEALGVFALKPSLE”, “soluble”. For “MGSDKIHHHHHHEEMEKGFDPKRYARELWFKLQDMMNEGLGYDAVEVLNTLDENPELAHQKFAKVVGVSNYRYYIIQGVGEIVEIKDDGILVKVRENRKVPDLFLSNHIFGNGIVNATGIAKMEDFDRIIDFNLTATELNKIVKEEVVNSFLKQLSKGAGSVGSLVRFIAVFTLLKDEEIKYPIEAIPLYLEIQGGF” the value was “soluble”; for “MSYRESRQRLERLTESPSHLTIWRRMQELSYESKFEYESFVSADGTKLHAKRSKKLDVKVIAGKSVIVGINESHREMRGEYDVKATVVGDADRDLSCF”, “not soluble”. As to “MIRRENRLRREFIFRKSLEEKQKSLEEKREKIRNALENNTKIDYNLRKDAIELAKGSDWGGQQYETDSEYRWAGAQDPKIVITTSRDPSSRLKMFAKEMKLIFPNAQRINRGHYDVKQVVQASKAQDSTDLIIFTETRGNPDGMLVCHLPFGPTAFFSMANVVMRHDIPNCGTMSEQYPHLIFDNLNSKLGHRFTTILKHLFPVPKPDSKRIITFSNSEDYISFRHHVYKTENDGEVELTEAGPRFELKPYQIKLGTLETLAAAEDEWVLRSYTNTARKRTFLSISRADDDE”, the “soluble on expression in E. coli” value was “not soluble”.

On to “MSLKTITTFENKKVLVLGLARSGEAAARLLAKLGAIVTVNDGKPFDENPTAQSLLEEGIKVVCGSHPLELLDEDFCYMIKNPGIPYNNPMVKKALEKQIPVLTEVELAYLVSESQLIGITGSNGKTTTTTMIAEVLNAGGQRGLLAGNIGFPASEVVQAANDKDTLVMELSSFQLMGVKEFRPHIAVITNLMPTHLDYHGSFEDYVAAKWNIQNQMSSSDFLVLNFNQGISKELAKTTKATIVPFSTTEKVDGAYVQDKQLFYKGENIMSVDDIGVPGSHNVENALATIAVAKLAGISNQVIRETLSNFGGVKHRLQSLGKVHGISFYNDSKSTNILATQKALSGFDNTKVILIAGGLDRGNEFDELIPDITGLKHMVVLGESASRVKRAAQKAGVTYSDALDVRDAVHKAYEVAQQGDVILLSPANASWDMYKNFEVRGDEFIDTFESLRGEGHHHHHH”, for which the “soluble on expression in E. coli” value is on record as “soluble”. The result for “MSLTDLIVTNGAVLTMDPARPEAEAVAVADGRITAVGSRAEIERLAGPRTDMIDAGGGTVLPGFVESHLHLVLGGAELAHLQLAGVHGVEALTRAAQSFAAAHPDRPLLMAQGGDYGLLDRPMTRQDLDAILPDRPFAITAPDHHTVWANTAALRAAGLIEGASMPHGHEVVMGADGRATGELREFEAFAPVIALGGEARLNLGIATGEEPSPWPDAAERAIDRAKIARGLAHCAAHGITSMVNMDGNRYTLELLRELQRAGGLTARIRVPFHFKPHMALADLARAEAMTRDFDDDWLACNFVKMFMDGVLDSGTAYRLDDYPDAPGWRSEPLFEPARFAEIATAVDRRGLQIAVHAIGCGAVRTTLDGYAAARAANGARDSRHRIEHIELIDRADIPRLAALGVVASLQPPHPPGAMDFPLQPTLDRIGRSRWPDAYLCRTLAEAGAPVVFASDWPVTDVSVLRGLQAALTRRPYEGAADERLTLAESLRAYTAGGAWANHRERLTGTLRAGLAADLAILDGRLEARAADSLGSLGVARTLCGGRTTHRREGHHHHHH” reads “not soluble”. For “MPAPLKQLSWSVGCREIGRNCAISFIDALVNSLLAFRIAKRHTKLASECTWSQGRIDFMSENLNHTERQDRAITAPEFDALGRAPFISSLVKTLVHTDYDTSTGEVRSRRATGFVVGLTGEWGLGKSSVLNLLEHDLKQMEHVAVATLNPWLFKGRDEVVEAYFNALREALGFSSSEKARKLLVHLARYKASIEFVGATTAVVIDFVVGTGSATAIWKKWVLKVVRFLSKSRGLSANEERKNLEAKLAEAKIAIVMLIDELDRVEDEEVRVVAQLVKAVGDIKGISYLVAYDPSRVAQALGKGSTPEEKQKAGESYLEKIIQFPIPLRPLFMDEARDLLLQAMRNNDVTMPAESQSYQTEILNQLLRVIRTPREIKRLIGAFAVLEEIVRGEICPFDVLAYSWLVTKAPSLRERIADNIGQLVDDPSGEEMLARQRQRALATDKERTLTDILGSSAVSHLDILQLLFTRFNARREGSAEFFNGYRLALRRNLIRLLYLGNPPGDFSRRDIEVLWSLTNVDELEAELRRVKETDRLGPLLDRVGDFSASFPEAGDGIFWLALGRALVRENDWIRREEVERSLVDDACATLWRIARDGSEGSRRLRHIVHVLIEGGDLLIVPWLLRKHLFAHGLTNHGDRGRGDCIFEKDETIALRDKELPRYHDAVADGTALKKLPDTELIFCVLNSNYWDSKLKEDFTLQLDSIEAIVSFAALIMPPGIICDKSTLDLMLETDTVLKKANALLRQSGMPESDWLASAVRRLRTVLAGRDIHSADTLRDDFDQEELEHHHHHH” the value was “not soluble”; for “MAHHHHHHMGLEDIDECLPPSLGGKGQVLKGRPVNNGDGTSGSCAKVNFGELFGFPVASSGGAVMPSASAGVGSVQAGSKTECQEPEEQWIWVSAEGQKSEASPVDNMAGRSNDPLDAFFTSHTPSLQPSSSMKREEKPFTDLLDFSKPAERVRYSDEHSLLEAFENQSKGRRADVRDDPSLEDLSHGSSNNAVRARLLKIMNYYDILGVTRDATEEQIRQRYKQKALELHPDRVGRDQTPEEVELFKVMTKANEVLCDPEERAKYDEELRCSNVGADDEAQWLFHLHLR”, “soluble”. For “MIDSRLLAWAYLSKVVEGPNAHLQKLLKEGHDVERIAFGIKHREEWIGEGLLKNTDSRYSIDTAQTDLETIAKLGGRLITPEDDEWPMEELDHAFGFAASGMSDHVRTYQDDALPPHALWIRGGNLRTLSAQSVTLVGTRAISQYGTEVTREFTQNLVSHQWTIISGGALGVDSVAHSEAVRAQGSTIAIAACGLDRSYPSHNRDLFNQIAKSGKGALVSEYPPGTPPQRHRFLTRNRLVAALSQGTVVVEAAWRSGALNTLSWCAGLGRIAMAVPGPVNTAGSLGCHERIRNGSAQMVTSADDVRSLLGAVGAMDSQTQYELNFAATPVQGLTRNELRVFDALDDRGEGREAASIATEAGLTLQLTIFLLIALNKRGIVKRDGTAWSRNAEMP” the value was “not soluble”. In the case of “HMLLTTSRKPSQRTRSFSQRLSRIMGWRYINRGKMSLRDVLIEARGPVAVVSERHGNPARITFLDERGGERGYILFNPSFEMKKPELADKAVRVSSCPPGSEGLCNLMGLEVDESSSRDAWSIRTDEEYAWVMELMDARGTPAGFKLLIRDFRVGE”, the “soluble on expression in E. coli” value is “soluble”. For “SLLLAKHPVISVNGNTAVLVPEETRKLAELVNAKVEINVFHHSPERVEKIKRYLEKHGIEVLAAGDAVLEGLESARRIVDSRGILIADVVLVPLEDGDRCEILKRHGKKVIAIDLNPLSRTARMADITIVDNIIRAFPKMVEMAEEMRKWERERLKEVVENYDNSKVLAEAVEGIIQYLQKVKGELLSP” the value was “soluble”; for “GPGSMSSERYVDGDLGEPFNSAEPLTLPVVVQLLRGRRDTSLDHPASRLIEKTCRQVELMQETCADECRVQRVMETRLRLVNKNNRQQMNAHLGNFVVGEDGFATLPPESDDFLDTAEEEAMKMFEVVALGTLQPKTADEARELIPSLGRFEPADLNKVLEMLDSL”, “not soluble”; for “MGSDKIHHHHHHAVNCYVGNYYRADSIAEAAIDSDREVAVTIEKKDKRIQATQYDLKLKNYTITFAPQDKEKATKALIFYPGGRVQYTAYAPLMHELAKNNFVCILVHMPGNLAVLDQNAADGIIEKYKEIYPSIQEWYMGGHSLGGAMAAEYVAKHVDEFDGLYLFAAYSTADLSDSDLRVFSVYGSEDGVLDMDKYRKYRSNLPEDTYEYVIDGGCHSYFGSYGLQKGDGTPDVAFEEQIEMTVDFITYNSK”, “not soluble”. Consider “MRIILLGAPGAGKGTQAQFIMEKYGIPQISTGDMLRAAVKAGSELGLKAKEIMDAGKLVTDELVIALVKERITQEDCRDGFLLDGFPRTIPQADAMKEAGIKVDYVLEFDVPDELIVERIVGRRVHAASGRVYHVKFNPPKVEDKDDVTGEELTIRKDDQEATVRKRLIEYHQQTAPLVSYYHKEADAGNTQYFKLDGTRNVAEVSAELATILG”, for which the “soluble on expression in E. coli” value is reported as “not soluble”.
